T1: PBF (prolamin-box binding factor) (Zea mays, UniProt O24463 1-328)
T1 sequence: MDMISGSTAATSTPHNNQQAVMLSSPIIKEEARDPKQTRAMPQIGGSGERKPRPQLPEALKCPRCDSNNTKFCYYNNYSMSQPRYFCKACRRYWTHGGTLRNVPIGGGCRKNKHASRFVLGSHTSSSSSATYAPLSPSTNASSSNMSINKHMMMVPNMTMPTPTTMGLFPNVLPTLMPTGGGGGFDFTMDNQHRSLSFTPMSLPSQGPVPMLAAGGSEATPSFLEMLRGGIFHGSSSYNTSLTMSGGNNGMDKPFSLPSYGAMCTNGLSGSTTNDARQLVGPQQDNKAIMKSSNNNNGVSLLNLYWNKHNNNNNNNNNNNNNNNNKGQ

B1: z1A P box (dsDNA)
DNA 1: GGCTATCGTTACACATGTGTAAAGGTATTGCATCACACCATT
DNA 2: AATGGTGTGATGCAATACCTTTACACATGTGTAACGATAGCC
B2: z1C P-box (dsDNA)
DNA 1: TCATGTTAATGTTGTCACATGTGTAAAGGTGAAGAGATCTTGCATGT
DNA 2: ACATGCAAGATCTCTTCACCTTTACACATGTGACAACATTAACATGA
B3: z1A O2-like box (dsDNA)
DNA 1: ATCAAGTTTGTCTTGCTTACGTATAAATTATAACCCAACA
DNA 2: TGTTGGGTTATAATTTATACGTAAGCAAGACAAACTTGAT
B4: z1D-P1 (dsDNA)
DNA 1: TTTTGTGCAAATTGTTTTGTCGACATATAAAGTGTAAGATAAGAAA
DNA 2: TTTCTTATCTTACACTTTATATGTCGACAAAACAATTTGCACAAAA
B5: z1B-P2 (dsDNA)
DNA 1: CAAAGCCAACTAGATACCACATCATCTCTAGCTTATCTTA
DNA 2: TAAGATAAGCTAGAGATGATGTGGTATCTAGTTGGCTTTG
B6: z1B-P3 (dsDNA)
DNA 1: AACTCAATCTACATAAGCACAAGGTCTAACATGTGTATAA
DNA 2: TTATACACATGTTAGACCTTGTGCTTATGTAGATTGAGTT
B7: z1C O2-box (dsDNA)
DNA 1: GAGATCTTGCATGTCATTCCACGTAGATAAAAAGAATGCATATATA
DNA 2: TATATATGCATTCTTTTTATCTACGTGGAATGACATGCAAGATCTC

Target: T1, PBF (prolamin-box binding factor)
Assay: EMSA

Binding result, binds:
B1, B2

Target: OHP1 (Zea mays, UniProt Q03462 1-405)
Assay: EMSA

Binding result, binds:
B3, B4, B5, B6, B7
